Assay results from the RNAGym collection of RNA variant scans (doi:10.7554/elife.80360).

B1: HDV Ribozyme (parent)
chain: GGCCGGCAUGGUCCCAGCCUCCUCGCUGGCGCCGGCUGGGCAACAUUCCGAGGGGACCGUCCCCUCGGUAAUGGCGAAUGGGACCCA

Variants of: B1
Test: self-cleavage, relative activity (ratio to wild type); higher = more cleavage; co-transcriptional
With G2C U9C the self-cleavage was 0.128.
In the case of C7U U23A, the self-cleavage is reported as 0.923.
Work on G68A G80C yielded a self-cleavage of 0.286.
U27G G76U showed a self-cleavage of 0.855.
For G39U G82A, the self-cleavage was 0.27.
U12G U65C gave a self-cleavage of 0.831.
Variant U12G U65G has a self-cleavage of 0.962.
Work on U60G A87G yielded a self-cleavage of 0.921.
Variant C63A A77U has a self-cleavage of 0.356.
For U47C A51U, the self-cleavage was 0.831.
G5A U12C gave a self-cleavage of 0.0615.
G39C C66A showed a self-cleavage of 0.361.
Work on A43G C86U yielded a self-cleavage of 0.739.
With C22A A87U the self-cleavage was 0.24.
In the case of G29A U46G, the self-cleavage is reported as 0.166.
With C15A A42G the self-cleavage was 0.104.
In the case of C7A G82A, the self-cleavage is reported as 0.0875.
For C7A G82U, the self-cleavage was 0.256.
In the case of U27A A56U, the self-cleavage is reported as 0.923.
For G35A C58A, the self-cleavage was 0.46.
C41U C66A gave a self-cleavage of 0.719.
In the case of U9A C57U, the self-cleavage is reported as 1.19.
C30U G68A gave a self-cleavage of 0.546.
With G73U G74A the self-cleavage was 0.172.
With G31U U65A the self-cleavage was 0.318.
In the case of C75A A77C, the self-cleavage is reported as 0.237.
For C62G U65G, the self-cleavage was 0.32.
Variant C66A A71G has a self-cleavage of 0.782.
U12C C26U showed a self-cleavage of 0.776.
Variant G52U C57G has a self-cleavage of 0.95.
Variant C36G U47A has a self-cleavage of 0.177.
For G11C C32A, the self-cleavage was 0.0437.
G34A G40A gave a self-cleavage of 0.181.
Variant C63G A87C has a self-cleavage of 0.737.
Variant G17U U20G has a self-cleavage of 0.
For C4G C48G, the self-cleavage was 0.485.
For C19U C26A, the self-cleavage was 0.446.
Work on G11A C58U yielded a self-cleavage of 0.322.
In the case of C24G G31A, the self-cleavage is reported as 0.0594.
G1U A16U gave a self-cleavage of 0.262.
In the case of U9G G10C, the self-cleavage is reported as 0.489.
U20A U72A showed a self-cleavage of 0.107.
C19G G59C gave a self-cleavage of 0.141.
C21U G74C showed a self-cleavage of 0.158.
In the case of U72A G81A, the self-cleavage is reported as 0.113.
Work on C19U A87C yielded a self-cleavage of 0.235.
Variant A51G C66U has a self-cleavage of 0.89.
G67C G82C showed a self-cleavage of 0.289.
In the case of C61U U79A, the self-cleavage is reported as 0.88.
In the case of A71C A83G, the self-cleavage is reported as 0.582.
In the case of G6A G76C, the self-cleavage is reported as 0.764.
With G10A A16C the self-cleavage was 0.867.
Work on G10A A16G yielded a self-cleavage of 0.584.
G59C C86G showed a self-cleavage of 1.06.
Variant C21G G34A has a self-cleavage of 0.0386.
Work on C61G C64A yielded a self-cleavage of 0.582.
C22U G82A showed a self-cleavage of 0.101.
For C57A G81C, the self-cleavage was 0.181.
In the case of A45C C57A, the self-cleavage is reported as 0.504.
In the case of G29U C58G, the self-cleavage is reported as 0.0755.
Work on C7A C66G yielded a self-cleavage of 0.243.
Variant C14A A83U has a self-cleavage of 0.499.
For U12C A56G, the self-cleavage was 0.623.
G5U A56G showed a self-cleavage of 0.391.
For C49G A78C, the self-cleavage was 0.262.
G25U A83G gave a self-cleavage of 0.0978.
Work on G5A C15A yielded a self-cleavage of 0.162.
C33U G82C showed a self-cleavage of 0.245.
In the case of A45U, the self-cleavage is reported as 0.832.
U20C A78C gave a self-cleavage of 0.0449.
U20C A78G showed a self-cleavage of 0.0755.
In the case of G1U G39C, the self-cleavage is reported as 0.397.
For U72A G74C, the self-cleavage was 0.339.
A56U G67U gave a self-cleavage of 0.988.
Work on A16C G54A yielded a self-cleavage of 0.866.
G40U G82U gave a self-cleavage of 0.171.
G38C A70U gave a self-cleavage of 0.185.
Variant G31C G67C has a self-cleavage of 0.272.
For A78G G82U, the self-cleavage was 0.295.
Work on U27G G28C yielded a self-cleavage of 0.554.
Work on G54C A70U yielded a self-cleavage of 0.81.
A8C G55U gave a self-cleavage of 0.831.
In the case of C36A C85G, the self-cleavage is reported as 0.18.
In the case of G68U A87U, the self-cleavage is reported as 1.
Variant G39C G68U has a self-cleavage of 0.246.
G38A C41A gave a self-cleavage of 0.185.
With C26A C44U the self-cleavage was 0.95.
C14U C66A gave a self-cleavage of 0.877.
In the case of G1C G53C, the self-cleavage is reported as 0.332.
Variant G1C G53U has a self-cleavage of 0.213.
Work on A56G G82U yielded a self-cleavage of 0.244.
In the case of G40A G67A, the self-cleavage is reported as 1.12.
C13G U79A gave a self-cleavage of 0.
With C14U C62U the self-cleavage was 0.923.
Variant G34U G67A has a self-cleavage of 0.115.
With C13A C86G the self-cleavage was 0.178.
C21G U60A showed a self-cleavage of 0.253.
Variant G39A A71G has a self-cleavage of 0.332.
Work on C44U G82C yielded a self-cleavage of 0.0723.
In the case of U46G G80C, the self-cleavage is reported as 0.185.
C41G G76C showed a self-cleavage of 0.91.
G10A U65C showed a self-cleavage of 0.769.
Variant G17A C58U has a self-cleavage of 0.588.
For G38C G76U, the self-cleavage was 0.47.
C24G A71U showed a self-cleavage of 0.106.
Variant G53A U65C has a self-cleavage of 0.815.
Variant U47G A71C has a self-cleavage of 0.959.
C48U C58U showed a self-cleavage of 0.904.
Work on C66A G80A yielded a self-cleavage of 0.54.
In the case of G73A C85U, the self-cleavage is reported as 0.73.
U9A A71U gave a self-cleavage of 0.688.
Variant A16U C36A has a self-cleavage of 0.0475.
Variant C66A U79G has a self-cleavage of 0.804.
C41U G80A showed a self-cleavage of 0.283.
With G29U A56C the self-cleavage was 0.202.
For G29U C63G, the self-cleavage was 0.0386.
With G67U A83C the self-cleavage was 0.635.
With G10A C32G the self-cleavage was 0.0966.
For G25C A83C, the self-cleavage was 0.0489.
With G34A G67U the self-cleavage was 0.0811.
Variant C48G A87U has a self-cleavage of 1.09.
With C4A G59A the self-cleavage was 0.346.
For C4A G59C, the self-cleavage was 0.302.
With C24U U69C the self-cleavage was 0.831.
C22G C61U gave a self-cleavage of 0.0723.
For C30U A78C, the self-cleavage was 0.0978.
In the case of U46C U79C, the self-cleavage is reported as 0.432.
For C7A U60G, the self-cleavage was 0.356.
Work on A56C A83C yielded a self-cleavage of 0.494.
With U9G G55C the self-cleavage was 0.665.
In the case of G54C C66U, the self-cleavage is reported as 0.917.
G34C C41U gave a self-cleavage of 0.0378.
For G40C G82U, the self-cleavage was 0.0978.
C22U C36U showed a self-cleavage of 0.254.
Variant U46C A77C has a self-cleavage of 0.375.
Variant U65A A71U has a self-cleavage of 0.76.
With C62U C84U the self-cleavage was 0.819.
G2A G31A gave a self-cleavage of 0.0729.
G80A C84U showed a self-cleavage of 0.197.
With U46C G82A the self-cleavage was 0.224.
In the case of A8C C33A, the self-cleavage is reported as 0.0504.
G68U C85U gave a self-cleavage of 0.972.
For G17A A42C, the self-cleavage was 0.229.
Variant G17U G52C has a self-cleavage of 0.591.
Work on G34C U47C yielded a self-cleavage of 0.185.
A42C G76C showed a self-cleavage of 0.277.
In the case of G11U C36G, the self-cleavage is reported as 0.0615.
For C63A G74U, the self-cleavage was 0.515.
U37G C66G gave a self-cleavage of 0.135.
Work on G2A A87U yielded a self-cleavage of 0.237.
With U9A C26G the self-cleavage was 0.623.
With C3G C86A the self-cleavage was 0.876.
G31C G55U gave a self-cleavage of 0.338.
For C19G G52A, the self-cleavage was 0.0739.
Work on G40C G81C yielded a self-cleavage of 0.115.
Variant C62A G82A has a self-cleavage of 0.35.
Work on A78G A87U yielded a self-cleavage of 0.862.
A51G G73C gave a self-cleavage of 0.575.
Work on C7A G17U yielded a self-cleavage of 0.162.
Variant G39U U65G has a self-cleavage of 0.583.
In the case of G40U U79A, the self-cleavage is reported as 0.262.
For G52A A83G, the self-cleavage was 0.85.
For U12G C48U, the self-cleavage was 1.2.
For G54A G59U, the self-cleavage was 1.06.
With G6U C33A the self-cleavage was 0.0332.
With C21G A77C the self-cleavage was 0.0536.
With C19G G39U the self-cleavage was 0.0707.
